From paper PMC4966837 (mAbs, 2015)

Biological target: human βc receptor on cells (TF-1 cells, human neutrophils, human eosinophils) (Homo sapiens, UniProt P32927)
Experiment: radioligand binding

Chain of human βc receptor on cells (TF-1 cells, human neutrophils, human eosinophils) (P32927 17-897): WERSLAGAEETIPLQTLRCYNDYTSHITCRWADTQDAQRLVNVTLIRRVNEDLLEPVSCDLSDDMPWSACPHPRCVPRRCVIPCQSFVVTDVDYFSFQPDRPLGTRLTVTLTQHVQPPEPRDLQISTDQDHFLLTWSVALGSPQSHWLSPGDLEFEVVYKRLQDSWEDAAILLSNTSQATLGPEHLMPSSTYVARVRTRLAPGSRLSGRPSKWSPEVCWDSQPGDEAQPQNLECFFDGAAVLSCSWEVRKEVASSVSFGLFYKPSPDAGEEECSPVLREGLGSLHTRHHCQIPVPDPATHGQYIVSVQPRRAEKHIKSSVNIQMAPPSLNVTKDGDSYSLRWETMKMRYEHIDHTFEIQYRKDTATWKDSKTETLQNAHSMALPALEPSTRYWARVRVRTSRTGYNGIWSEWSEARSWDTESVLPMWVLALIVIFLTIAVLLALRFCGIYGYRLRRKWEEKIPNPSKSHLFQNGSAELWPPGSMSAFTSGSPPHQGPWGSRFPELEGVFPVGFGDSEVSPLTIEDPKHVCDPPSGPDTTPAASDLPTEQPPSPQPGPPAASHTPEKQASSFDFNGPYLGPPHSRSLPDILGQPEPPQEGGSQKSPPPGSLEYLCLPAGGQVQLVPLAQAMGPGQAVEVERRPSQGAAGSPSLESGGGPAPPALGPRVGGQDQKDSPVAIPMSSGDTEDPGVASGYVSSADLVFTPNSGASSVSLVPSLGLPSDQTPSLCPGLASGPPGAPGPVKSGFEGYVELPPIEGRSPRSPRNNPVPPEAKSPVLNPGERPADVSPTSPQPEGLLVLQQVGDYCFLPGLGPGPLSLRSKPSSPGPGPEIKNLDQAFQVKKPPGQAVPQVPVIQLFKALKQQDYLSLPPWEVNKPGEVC

| Kd [nM] | Binder |
| --- | --- |
| 0.25 to 0.73 | CSL311 (human IgG4-kappa monoclonal antibody) (antibody, V domains shown) VH: EVQLLESGGGLVQPGGSLRLSCAASGFTFPWYRVHWVRQAPGKGLEWVSSIRSSGGFPYYNYKVKGRFTISRDNSKNTLYLQMNSLRAEDTAVYYCARFYDSFFDIWGQGTMVTVSS VL: DIQMTQSPSSVSASVGDRVTITCRASQGISSWLAWYQQKPGKAPKLLIYAASSLQSGVPSRFSGSGSGTDFTLTISSLQPEDFATYYCQQANSFPITFGQGTRLEIK |
| 0.38 to 0.67 | CSL311 Fab fragment (Fab, V domains shown) VH: EVQLLESGGGLVQPGGSLRLSCAASGFTFPWYRVHWVRQAPGKGLEWVSSIRSSGGFPYYNYKVKGRFTISRDNSKNTLYLQMNSLRAEDTAVYYCARFYDSFFDIWGQGTMVTVSS VL: DIQMTQSPSSVSASVGDRVTITCRASQGISSWLAWYQQKPGKAPKLLIYAASSLQSGVPSRFSGSGSGTDFTLTISSLQPEDFATYYCQQANSFPITFGQGTRLEIK |
